The assay addresses T1, Recombinant mouse CMG helicase (CDC45‐MCM‐GINS) (mouse, UniProt Q9Z1X9 1-566; P97310 1-904; P25206 1-812; P49717 1-862; P49718 1-734; P97311 …).
T1 construct: CDC45, mouse; MCM2, mouse; MCM3, mouse; MCM4, mouse; MCM5, mouse; MCM6, mouse; MCM7, mouse; PSF1 (GINS subunit), mouse; fourth GINS subunit, mouse; PSF3 (GINS subunit), mouse; SLD5 (GINS subunit), mouse; The complex was captured on IgG Sepharose and released with TEV protease, so one subunit carried a cleavable tag; source: budding yeast strain YCE1259 co-expressing the 11 subunits, purified (IgG …)
The experiment in a line: co-IP; purified recombinant mouse DONSON and CMG incubated in 25 mM Hepes‐KOH pH 7.6, 200 mM KOAc, 0.02% NP‐40, 10 mM MgOAc, 1 mM DTT, 0.1 mg/ml BSA for 30 min on ice; CMG isolated on magnetic beads coupled to MCM6 antibody, 1 h on ice; immunoblotting (Fig 1C). The note with it: both partners purified.

B1: Recombinant mouse DONSON (natural protein, UniProt Q9QXP4 1-560, looked up)
chain: MAVSVPGYSPSFKRPPETVRLRRKRSRDHGAAVPASLPEPAPRRAALAAGLPLRPFPTAGGRGGAAATIARRNPFARLDNRPRVSDEASEEPLRGPQGASGPLLDSNEENNLLWEDTSSHERTGTELSQSQRVSLSESDTWSSDGTELPVDWSIKTRLLFTSSQPFSWADHLKAQEEAQGLVQHCRATEVTLPQSIQDPKLSTALRCAFQQALVYWLHPAFSWLPLFPRIGADRKMAAKTSPWSADETLQHALMSDWSVSFTSLYNLLKTKLCPYFYVCSYQFTVLFRAAGLAGSSVITALISPTTRGLREAMRNEGIEFSLPLLEEIGHKKKVRDPSLESEEEQAVSDEDEEESFSWLEEIGVQDQIKKPDVISIKLRKEKHEVQMDHRPESVVLVKGLNTFKLLNFLINCKSLVATSGAQAGLPPTLLSPIAFRGASMQMLKARSSNVKTQALSGYRDKFSLDITGPVMPHALHSMSMLLRSSQRGSFSAGLYAHEPTAVFNVGLSLDKELDRKVAREDLANCGLHPKTLEQLSQRPVLGKSSLRSVEMSDYILSWRS
notes: DONSON, mouse; also called His‐SUMO‐DONSON (before cleavage); source: E. coli Rosetta (DE3) pLys, purified (Ni‐NTA, ULP1 cleavage, Superdex 200)
As to B1, the binding result is listed as “binds”.
